Assay results published in patent US20220259593A1, “CONTROL OF MAMMALIAN GENE DOSAGE USING CRISPR” (The Regents of the University of California, priority 2019, published 2022).

Tested on: K562 CRISPRi cells
Assay: Constant region variant library pooled growth screen, K562
Type: cell-based, human
Conditions: sgRNA constant region variants, un-modified constant region cr995
In short: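 K562 CRISPRi, duplicate transductions; puromycin 1 d 0.75 μg/mL then 1 d 0.85 μg/mL; >2000× coverage in spinner flasks; harvests at 4-8 d growth. Activity = phenotype ÷ phenotype with unmodified constant region.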

[1] = relative to the original, CRISPRi
[2] = activity relative to the original

Row | Molecule | Mean relative activity [1] | Mean relative activity [2]
1 | cr318 (nucleic acid, listed as DNA, chemistry not fully specified) guide: GTTTAAGAGCTAAGCTGGAAACAGCATAGCAAGTTTAAATATGGCTAGTCCGTTATCAACTTGATAAAGTGGCACCGAGTCGGTGCT | 0.4269 | –
2 | cr728 (nucleic acid, listed as DNA, chemistry not fully specified) guide: GTTTAAGAGCTAAGCTGGAAACAGCATAGCAAGTTTAAATAAGGCTAGTCCGTTATCGACTTGACAAAGTGGCACCGAGTCGGTGCT | 0.4155 | –
3 | cr772 (nucleic acid, listed as DNA, chemistry not fully specified) guide: GTTTAAGAGCTAAGCTGGAAACAGCATAGCAAGTTTAAATAAGGCTAGTCCGTTATCAACTCGAAAGAGTGGCACCGAGTCGGTGCT | – | 1.099
4 | cr404 (nucleic acid, listed as DNA, chemistry not fully specified) guide: GTTTAAGAGCTAAGCTGGAAACAGCATAGCAAGTTTAAATAAGGCTAGTCCGTTATCCACTTGATAAAGTGGCACCGAGTCGGTGCT | 0.3784 | –
5 | cr545 (nucleic acid, listed as DNA, chemistry not fully specified) guide: GTTTAAGAGCTAAGCTGGAAACAGCATAACAAGTTTAAATAAGGCTAGTCCGTCATAAACTTGAAAAAGTGGCACCGAGTCGGTGCT | 0.3936 | –
6 | cr343 (nucleic acid, listed as DNA, chemistry not fully specified) guide: GTTTAAGAGCTAAGCTGGAAACAGCATAGCAAGTTTAAATAAGGCTAGTCCGTTATCATGAAGAAAATGAGGCACCGAGTCGGTGCT | 0.3733 | –
7 | cr794 (nucleic acid, listed as DNA, chemistry not fully specified) guide: GTTTAAGAGCTAAGCTGGAAACAGCATAGCAAGTTTAAATAAGGCTAGTCCGTTATCAACTTGAAAAAGTGCCACGGAGTCCGTGGT | 0.411 | –
8 | cr687 (nucleic acid, listed as DNA, chemistry not fully specified) guide: GTTTAAGAGCTAAGCTGGAAACAGCATAGCAAGTTTAAATAAGGCTAGTCCGTTATCAACTTGAAAAAGTGGCACTGAGTCGGTGCT | – | 1.042
9 | cr249 (nucleic acid, listed as DNA, chemistry not fully specified) guide: GTTTAAGAGCTAAGCTGGAAACAGCATAGCAAGTTTAAATAAGGCTAGTCCGTGATTAACTTGAAAAAGTGGCACCGAGACGGTGCT | 0.3886 | –
10 | cr126 (nucleic acid, listed as DNA, chemistry not fully specified) guide: GTTTAAGAGCTAAGCTGGAAACAGCATAGCAAATTTAAATAAGGCTCGTCCGTTATCAACTTTAAAAAGTGGCACCGAGTCGGTGCT | 0.4034 | –
11 | cr813 (nucleic acid, listed as DNA, chemistry not fully specified) guide: GTTTAAGAGCTAAGCTGGAAACAGCATAGCAAGTTTAAATAAGGCTAGTCCGTTATCTACTTGAAAAAGTGGCACCGAGTCGGTGCT | 0.3803 | –
12 | cr385 (nucleic acid, listed as DNA, chemistry not fully specified) guide: GTTTAAGAGCTAAGCTGGAAACAGCATAGCAAGTTTAAATAAGGCTAGTCCGTTATCAACTTGAAAAAGTGGCCACCAGTGGTGGCT | 0.4186 | –
13 | cr569 (nucleic acid, listed as DNA, chemistry not fully specified) guide: GTTTAAGAGCTAAGCTGGAAACAGCATGGCAAGTTTAAATAAGGCTCGTCCGTTATGAACTTGAAAAAGTGGCACCGAGTCGGTGCT | 0.3992 | –
14 | cr200 (nucleic acid, listed as DNA, chemistry not fully specified) guide: GTTTAAGAGCTAAGCTGGAAACAGCATAGCAAATTTAAATAAGGCTAGTCCGTTATCAACTTGAAAAAGTGGCACCGAGTCGGTGCC | 0.3799 | –
15 | cr799 (nucleic acid, listed as DNA, chemistry not fully specified) guide: GTTTAAGAGCTAAGCTGGAAACAGCATAGCAAGTTTAAATAAGGCTAGTCTGTTATCAACTTGAAAAAGTGGCACCGAGTCGGTGCT | 0.4031 | –
16 | cr296 (nucleic acid, listed as DNA, chemistry not fully specified) guide: GTTTAAGAGCTAAGCTGGAAACAGCATAGCAAGTTTAAATAAGGCTAGTCCGTTATCAACTTGAAAAAGTGGTACGCAGTGCGTACT | 0.3911 | –
17 | cr527 (nucleic acid, listed as DNA, chemistry not fully specified) guide: GTTTAAGAGCTAAGCTGGAAACAGCATAGCAAGTGTAAATAAGGCTAGTCCGTTATCAACTTGAAAAAGTGGCACCGAGTCGGTGCT | 0.3802 | –
18 | cr856 (nucleic acid, listed as DNA, chemistry not fully specified) guide: GTTTAAGAGCTAAGCTGGAAACAGCATAGCAAGTTTAAATAAGGATATTCCGTTATCAAATTGAAAAATTGGCTCCGAGTCGGAGCT | 0.3826 | –
19 | cr459 (nucleic acid, listed as DNA, chemistry not fully specified) guide: GTTTAAGAGCTAAGCTGGAAACAGCATAGCGAGTTTAAATAAGGCTAGTCCGTTATCTACTTGAAAAAGTGGCACCGAGTCGGTGCT | 0.3837 | –
20 | cr736 (nucleic acid, listed as DNA, chemistry not fully specified) guide: GTTTAAGAGCTAAGCTGGAAACAGCATAGCAAGATTAAATAAGGCTAGTCCGTTATCAACTTGAAAAAGTGGCACCGAGTCGGTGCA | 0.4208 | –
21 | cr356 (nucleic acid, listed as DNA, chemistry not fully specified) guide: GTTTAAGAGCTAAGCTGGAAACAGCATAGCAAGTTTAAATAAGGCTAGTCCGTTATCACCTTGAAAAAGGGACACCGAGTCGGTGTT | – | 1.042
22 | cr088 (nucleic acid, listed as DNA, chemistry not fully specified) guide: ATTTAGGAGCTAAGCTGGAAACAGCATAGCAAGTTTAAATAAGGCTAGTCCGTTATCAACTTGAAAAAGTGGCACCGAGTCGGTGCT | 0.3745 | –
23 | cr473 (nucleic acid, listed as DNA, chemistry not fully specified) guide: GTTTAAGAGCTAAGCTGGAAACAGCATAGCAAGTTTAAATAAGGCTAGTCCGATATAAACTTGCAAAAGTGGCACCGAGTCGGTGCT | 0.3892 | –
24 | cr523 (nucleic acid, listed as DNA, chemistry not fully specified) guide: GTTTAAGAGCTAAGCTGGAAACAGCATAGCAAGCTTAAATAAGGCTAGTCCGTTATCAACTTGAAAAAGTGTCACCGAGTCGGTGAT | 0.3746 | –
25 | cr775 (nucleic acid, listed as DNA, chemistry not fully specified) guide: GTTTAAGAGCTAAGCTGGAAACAGCATAGCGATTTTAAATAAGGCTAGTCCGTTATCAACTTGAAAAAGTGGCACCGAGTCGGTGCT | 0.4052 | –
26 | cr755 (nucleic acid, listed as DNA, chemistry not fully specified) guide: GTTTAAGAGCTAAGCTGGAAACAGCATAGCAAGCTTAAATAAGGCTAGTCCGTTATCAACTTGAAAAAGTGGCTCCGAGTCGGAGCT | 0.3814 | –
27 | cr040 (nucleic acid, listed as DNA, chemistry not fully specified) guide: ATTTACGAGCTAAGCTGGAAACAGCATAGCAAGTTTAAATAAGGCTAGTCCGTTATCAACTTGAAAAAGTGGCACCGAGTCGGTGCT | 0.4233 | –
28 | cr165 (nucleic acid, listed as DNA, chemistry not fully specified) guide: GTTTAAGAGCTAAGCTGGAAACAGCATAGCAAGTTTAAATAAAGCTAGTCTGTTATCAACTCGAAAGAGTGTCACCGAGTCGGTGAT | 0.4224 | –
29 | cr804 (nucleic acid, listed as DNA, chemistry not fully specified) guide: GTTTAAGAGCTAAGCTGGAAACAGCATAGCAAGCTTAAATAAGGCTAGTCCGTTATCAACTTGAAAAAGTGACACCGAGTCGGTGTT | 0.4025 | –
30 | cr432 (nucleic acid, listed as DNA, chemistry not fully specified) guide: GTTTAAGAGCTAAGCTGGAAACAGCATAGCAAGCTTAAATAAGGCTAGTCCGTTATCAAGTTGAAAAACTGGCACCGAGTCGGTGCT | 0.3923 | –
